Reference: a protein production outcome set (Wang et al. 2014)

Assay: label from the status in PepcDB records

Sequence | protein production
MSKPPPKPVKPGQVKVFRALYTFEPRTPDELYFEEGDIIYITDMSDTSWWKGTCKGRTGLIPSNYVAEQAESIDNPLHEAAKRGNLSWLRECLDNRVGVNGLDKAGSTALYWACHGGHKDIVEVLFTQPNVELNQQNKLGDTALHAAAWKGYADIVQLLLAKGARTDLRNNEKKLALDMATNAACASLLKKKQQGTDGARTLSNAEDYLDDEDSD | failed
MSKQLLALNIDGALLRSNGKIHQATKDAIEYVKKKGIYVTLVTNRHFRSAQKIAKSLKLDAKLITHSGAYIAEKIDAPFFEKRISDDHTFNIVQVLESYQCNIRLLHEKYSIGNKKKVNSNLLGKALIHPSDPIFYPVQFVESLSDLLMDEPVSAPVIEVYTEHDIQHDITETITKAFPAVDVIRVNDEKLNIVPKGVSKEAGLALVASELGLSMDDVVAIGHQYDDLPMIELAGLGVAMGNAVPEIKRKADWVTRSNDEQGVAYMMKEYFRMQQRKGFLDKFHMKRV | failed
MSKRDYYQVLGVPRTASEDDLKKAYRRCAMKYHPDRNPGDAAAEAAFKECKEAYEVLADTKKRKLYDTHGHAAFEHGVGSGNTPDMNDIFGDIFGNIFGGARASRRGADVGYMVELDLEEAVAGVERQIQIPTLVECTHCHGSGSEDGHVETCGTCRGSGQVRIQRGIFAMQQTCPHCGGRGVIIRNPCKVCNGAGRVEDHKTLSVKIPAGVDNGDRIRLSGEGEQGPDGVPPGDLYVEVRVREHPIFQRDGDDLHCEVPVRISQAALGDIVRVATLDGEAEIRIPAETQSGKLFRLRGKGVRSVRSRTEGDLYCRIVVETPVNLTAEQRKLLEQFEMTFAGEDARKHSPKSATFLDGVKSFWDRMTS | failed
MSKREDEGCARKRRTEAGQRSEDCMNPNSVVISAFKVFQQELDTRYDKYERLVKISRDVTIESKRTIFLLHRVASVPDVEEILNEAEVKLDGVRQKIGQIAEELRGEDLHQFHRAFTPGIQEYVEAVSFHHFIRHRSLISLEEINARLVFIRDNNKAVGEGTFSSPCVLTFQITPTDYLLGVADLTGELMRMCISSVGNGDMDTPFQLSGFLRQIHDGFSLIGNTGPYEVSKKLHALRQSLGKVEDACYTLRVRGSEIPKHMLADVFSSRAAHIDPDDAMA | not failed
MSKVEQNAQHNIQQTSPNAAVQSGLQEWHRIIAEADWERLPDLLAEDVVFSNPSTFDPYHGKGPLMVILPAVFSVLENFQYARHFSSKSGYVLEFNANMGDELLTGVDLIEFNDAGKITDLVVMMRPASVVIDLSVEVGKRIAAAQS | not failed
MSKVIFALVLVVVLVACINATYVEFEEAYAPVDCKGQCTTPCEPLTACKEKCAESCETSADKKTCRRNCKKADCEPQDKVCDACRMKCHKACRAANCASECPKHEHKSDTCRACMKTNCK | not failed
MSKVLQISSAIPELDYANIPKEIIPFLASYNLIPQLLSQRIIESAIAPITCTQAEISHALDQFYQHWDLTTAEKIKDWCLRYGLNAEKLKLLATRKLRVEKFKQINWRHQLESYFLKRKKYLDRVIYSLIQTENKSVVNELFFRIAEGEDSFAELARKYSQGAEADRGGIIGPVELGSITPNFAQLLYTSQVGVVQPPVAFGNTWVIVRVEKLIPAQLDDFMRQRLLQENFEDWFQQQLNQLSPEEKIWMGINPKSDQVQEMA | failed
MSKVRIAIIGNGMVGHRFIEELLDKAPAGQFDITVFCEEPRIAYDRVHLSSYFSHHTAEELSLVREGFYEKHGVKVLVGERAITINRQEKVIHSSAGRTVFYDKLIMATGSYPWIPPIKGAETQDCFVYRTIEDLNAIESCARRSKRGAVVGGGLLGLEAAGALKNLGVETHVIEFAPMLMAEQLDQMGGEQLRRKIESMGVKVHTSKNTKEIVQQGTEARKTMHFADGSELQVDFIVFSTGIRPRDKLATQCGLAVAQRGGIMVNDSCQTSDPDIYAIGECASWNNRVYGLVAPGYKMAQVAVDHLLGSENSFTGADLSAKLKLLGVDVGGIGDAHGRTPGARSYVYLDESKEVYKRLIVSADNKTLLGAVLVGDTSDYGNLLQLVLNAIELPENPDSLILPAHAGSGKPSIGVDKLPDSAQICSCFDVSKGDLIAAINKGCHTVAALKAETKAGTGCGGCIPLVTQVLNAELAKQGIEVNNNLCEHFAYSRQELFHLIRVEGIKTFDELLEKHGQGYGCEVCKPTVGSLLASCWNEYILKPQHTPLQDSNDNFLANIQKDGTYSVIPRSAGGEITPEGLVAVGRIAREFNLYTKITGSQRIGLFGAQKDDLPEIWRQLIEAGFETGHAYAKALRMAKTCVGSTWCRYGVGDSVGFGVELENRYKGIRTPHKMKFGVSGCTRECAEAQGKDVGIIATEKGWNLYVCGNGGMKPRHADLLAADLDRETLIKYLDRFMMFYIRTADKLTRTAPWLDNMEGGIDYLRSVIIDDKLGLNDHLEEELARLRAAFACEWTETVNNPAAQTRFKHFINSDQRDPNVQVVPERDQHRPATPYERIPVTLVEEKA | not failed
MSKVRVAGFSVSVDGFGAGPEQSLNDPLGKRGPEMFQWFFHTRTFRAMMGKDDGSTGIDEDYASRAMANFGAFILGRNMFGPIRGEWPDDAWKGWWGPNPPYHAPTYVLTHYPREPLVMEGGTTFHFVTGGIHQALDQAKAAAGDKDVKIGGGVATVRQYLQAGLIDELHFAVSPVVLGKGEAMFAGIDLPALDFRVTEHAASEKATHIVLAKLEHHHHHH | failed
MSLAEKIKVLIVDDQVTSRLLLGDALQQLGFKQITAAGDGEQGMKIMAQNPHHLVISDFNMPKMDGLGLLQAVRANPATKKAAFIILTAQGDRALVQKAAALGANNVLAKPFTIEKMKAAIEAVFGALK | not failed
MSLAISITMETFYSLYPAVKHLHLTLIAVSVLFFVVRFVLHLRQSALMGKKVFKVAPHVIDTFLLLSGLVLCFMIKQYPFVDPWLTEKIGAVVAYIALGVIAIKANRNKLFKVFAFLGAIGWLVYAAKLAHFKQAVLLG | failed
MSLALQYFKALSDETRLRLIHVLNRHELSVNELVSILEMGQSRVSRHLKILTGAGLLTSRRDGLWVFYSAAAEGDGRAFLDAVTPFVTTDMVLQADLDMAQKIIEERALKTRQFFNAIAEDWDELNREVLGGFDLAGAVAEAMPQCETAVDLGCGTGSVIERMLQRSQQVIGVDGSPRMLELARRRFVEGAERVSLRIGELDHLPLRDGEADFASINMVLHHLSDPGVALGEIRRVLRLGGQLMVTDFDRHDNERMRSDYGDRWLGFEGVQLEGLLREAGFTVRECRRQGVAKGLALHLMLAEKTQQ | failed
MSLANQTTKTLGLVMPSSASKAFQNPFFPEVIRGISSFAHVEGYALYMSTGETEEEIFNGVVKMVQGRQIGGIILLYSRENDRIIQYLHEQNFPFVLIGKPYDRKDEITYVDNDNYTAAREVAEYLISLGHKQIAFIGGGSDLLVTRDRLAGMSDALKLADIVLPKEYILHFDFSRESGQQAVEELMGLQQPPTAIMATDDLIGLGVLSALSKKGFVVPKDVSIVSFNNALLSEIASPPLSTVDVNIYQLGYEAAKALVDKVENAESTAKCIIIPHKLLKRQTCEGHHHHHH | not failed
MSLANRIRLHIWGDYACFTRPEMKVERVSYDVITPSAARGILSAIHWKPAINWVIDKIYVLKPIRFESVRRNELGAKISESKVSGAMKRKSVADLYTVIEDDRQQRAATVLKDVAYVIEAHAVMTSKAGVDENTTKHIEMFKRRALKGQCFQQPCMGVREFPAHFALIDDNDPLPLSQLSESEFNRDLGWMLHDIDFEHGNTPHFFRAELKNGVIDVPPFYAEEVKREGHHHHHH | not failed
MSLAQADGIAFRELSFPEALKRAEVEDKLLFVDCFTTWCGPCKRLSKVVFKDSLVADYFNRHFVNLKMDMEKGEGVELRKKYGVHAYPTLLFINSSGEVVYRLVGAEDAPELLKKVKLGVESEGHHHHHH | not failed
MSLCRLARKNIRTFATKRMKQFMWIAMSIMILFFMISLQFNEGAILKVGDAFVFQMYFYTLFIVLIFICIFTTYKMMYSLLLVRREEFTSYVAENIKRKEVLCLLCQEQLFIYGAAFVFGLVNGMLFLKLFTIIFIRIAGIQGINSAPITIYAIVVVSIIMIVILLLSMVQCFRFVQSLQDKNSLHFKKKA | failed
